[ ]: non-standard residue; d: D form. The star is where a group is joined. DOTA = O=C(O)CN1CCN(CC(=O)O)CCN(CC(=O)*)CCN(CC(=O)O)CC1; 1Nal = N[C@@H](Cc1cccc2ccccc12)C(=O)O; 2Nal = N[C@@H](Cc1ccc2ccccc2c1)C(=O)O; NMeF = CN[C@@H](Cc1ccccc1)C(=O)O; NMeNle = CCCC[C@H](NC)C(=O)O; HYNIC = NNc1ccc(C(=O)*)cn1

The labels stand for the following.
B1: DOTA-MGS5-2 (DOTA-DGlu-Ala-Tyr-Gly-Trp-(N-Me)Nle-Asp-2Nal-NH2) (peptide)
peptide: {DOTA}-[dE]AYGW[NMeNle]D[2Nal]-NH2
SMILES: CCCC[C@@H](C(=O)N[C@@H](CC(=O)O)C(=O)N[C@@H](Cc1ccc2ccccc2c1)C(N)=O)N(C)C(=O)[C@H](Cc1c[nH]c2ccccc12)NC(=O)CNC(=O)[C@H](Cc1ccc(O)cc1)NC(=O)[C@H](C)NC(=O)[C@@H](CCC(=O)O)NC(=O)CN1CCN(CC(=O)O)CCN(CC(=O)O)CCN(CC(=O)O)CC1
B2: DOTA-MGS4 (DOTA-DGlu-Ala-Tyr-Gly-Trp-(N-Me)Nle-Asp-(N-Me)Phe-NH2) (peptide)
peptide: {DOTA}-[dE]AYGW[NMeNle]D[NMeF]-NH2
SMILES: CCCC[C@@H](C(=O)N[C@@H](CC(=O)O)C(=O)N(C)[C@@H](Cc1ccccc1)C(N)=O)N(C)C(=O)[C@H](Cc1c[nH]c2ccccc12)NC(=O)CNC(=O)[C@H](Cc1ccc(O)cc1)NC(=O)[C@H](C)NC(=O)[C@@H](CCC(=O)O)NC(=O)CN1CCN(CC(=O)O)CCN(CC(=O)O)CCN(CC(=O)O)CC1
B3: DOTA-MGS10 (DOTA-DGlu-Tyr-Pro-Gly-Trp-(N-Me)Nle-Asp-1Nal-NH2) (peptide)
peptide: {DOTA}-[dE]YPGW[NMeNle]D[1Nal]-NH2
SMILES: CCCC[C@@H](C(=O)N[C@@H](CC(=O)O)C(=O)N[C@@H](Cc1cccc2ccccc12)C(N)=O)N(C)C(=O)[C@H](Cc1c[nH]c2ccccc12)NC(=O)CNC(=O)[C@@H]1CCCN1C(=O)[C@H](Cc1ccc(O)cc1)NC(=O)[C@@H](CCC(=O)O)NC(=O)CN1CCN(CC(=O)O)CCN(CC(=O)O)CCN(CC(=O)O)CC1
B4: DOTA-MGS8 (DOTA-DGlu-Pro-Tyr-Gly-Trp-(N-Me)Nle-Asp-1Nal-NH2) (peptide)
peptide: {DOTA}-[dE]PYGW[NMeNle]D[1Nal]-NH2
SMILES: CCCC[C@@H](C(=O)N[C@@H](CC(=O)O)C(=O)N[C@@H](Cc1cccc2ccccc12)C(N)=O)N(C)C(=O)[C@H](Cc1c[nH]c2ccccc12)NC(=O)CNC(=O)[C@H](Cc1ccc(O)cc1)NC(=O)[C@@H]1CCCN1C(=O)[C@@H](CCC(=O)O)NC(=O)CN1CCN(CC(=O)O)CCN(CC(=O)O)CCN(CC(=O)O)CC1
B5: DOTA-MGS9 (DOTA-DLys-Ala-Tyr-Gly-Trp-(N-Me)Nle-Asp-1Nal-NH2) (peptide)
peptide: {DOTA}-[dK]AYGW[NMeNle]D[1Nal]-NH2
SMILES: CCCC[C@@H](C(=O)N[C@@H](CC(=O)O)C(=O)N[C@@H](Cc1cccc2ccccc12)C(N)=O)N(C)C(=O)[C@H](Cc1c[nH]c2ccccc12)NC(=O)CNC(=O)[C@H](Cc1ccc(O)cc1)NC(=O)[C@H](C)NC(=O)[C@@H](CCCCN)NC(=O)CN1CCN(CC(=O)O)CCN(CC(=O)O)CCN(CC(=O)O)CC1

The target in the first assay is serum proteins (fresh human serum) (human). In words: incubation in fresh human serum at 37 C (500 pmol/mL), Sephadex G-50 size-exclusion chromatography, gamma counting.
{DOTA}-[dE]AYGW[NMeNle]D[1Nal]-NH2 (also: DOTA coordinating 111In) [^111In-DOTA-MGS5] registered a Percentage of radioligand bound to serum proteins after 4 h incubation of 41% and a Percentage of radioligand bound to serum proteins after 24 h incubation of 44.3%.
As for {DOTA}-[dE]AYGW[NMeNle]D[2Nal]-NH2 (also: DOTA coordinating 111In) [^111In-DOTA-MGS5-2], the Percentage of radioligand bound to serum proteins after 4 h incubation was found to be 31.7% and the Percentage of radioligand bound to serum proteins after 24 h incubation worked out at 34.6%.
In turn, {DOTA}-[dE]PYGW[NMeNle]D[1Nal]-NH2 (also: DOTA coordinates 111In) [^111In-DOTA-MGS8] displayed a Percentage of radioligand bound to serum proteins after 4 h incubation of 44.5% and a Percentage of radioligand bound to serum proteins after 24 h incubation of 52.8%.
For {DOTA}-[dE]YPGW[NMeNle]D[1Nal]-NH2 (also: DOTA coordinates 111In) [^111In-DOTA-MGS10] the same measures were 56.7% and 53.4%.
Regarding {DOTA}-[dE]AYGWMD[1Nal]-NH2 (also: DOTA coordinates 111In) [^111In-DOTA-MGS1 (^111In-DOTA-DGlu-Ala-Tyr-Gly-Trp-Met-Asp-1Nal-NH2)], the Percentage of radioligand bound to serum proteins after 4 h incubation came out at 20% and the Percentage of radioligand bound to serum proteins after 24 h incubation was 28.8%.
On the same counts, the results for {DOTA}-[dK]AYGW[NMeNle]D[1Nal]-NH2 (also: DOTA coordinating 111In) [^111In-DOTA-MGS9] are 26.6% and 27.8%.
For {DOTA}-[dE]AYPW[NMeNle]D[1Nal]-NH2 (also: DOTA coordinates 111In) [^111In-DOTA-MGS12] the same measures were 41.2% and 45.9%.
For {DOTA}-[dE]AYGW[NMeNle]D[NMeF]-NH2 (also: DOTA coordinates 111In) [^111In-DOTA-MGS4 (^111In-DOTA-DGlu-Ala-Tyr-Gly-Trp-(N-Me)Nle-Asp-(N-Me)Phe-NH2)] the same measures were 8.9% and 11.9%.

Another assay addresses T1, human cholecystokinin-2 receptor (CCK2R) (human, UniProt P32239 1-447).
T1 sequence (looked up): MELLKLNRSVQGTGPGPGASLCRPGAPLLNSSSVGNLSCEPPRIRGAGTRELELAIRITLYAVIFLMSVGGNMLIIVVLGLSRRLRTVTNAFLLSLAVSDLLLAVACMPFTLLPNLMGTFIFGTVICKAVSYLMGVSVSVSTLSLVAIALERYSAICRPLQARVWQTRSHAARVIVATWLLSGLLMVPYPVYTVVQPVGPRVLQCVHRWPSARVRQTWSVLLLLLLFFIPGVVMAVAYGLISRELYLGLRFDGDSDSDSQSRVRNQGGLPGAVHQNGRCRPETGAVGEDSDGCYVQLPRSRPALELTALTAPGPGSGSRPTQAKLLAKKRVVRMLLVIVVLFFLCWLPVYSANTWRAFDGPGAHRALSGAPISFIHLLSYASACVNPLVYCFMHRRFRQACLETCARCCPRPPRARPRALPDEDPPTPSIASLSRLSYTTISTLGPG
In words: cell-based or functional assay.
Take ^111In-DOTA-MG11 (peptide): the cellular internalization after 2 h incubation on A431-CCK2R cells (% of total activity) turned out to be 29%.
As for {DOTA}-[dE]AYGW[NMeNle]D[1Nal]-NH2 (also: DOTA coordinating 177Lu) [^177Lu-DOTA-MGS5], the “cell uptake after 2 h incubation on A431-CCK2R cells (% of total activity)” value (shortened to “cell uptake … (% of total activity)”) was determined as 63%.
On the same count and under the same terms, the value for {DOTA}-[dE]AYGW[NMeNle]D[1Nal]-NH2 (also: DOTA coordinating 111In) [^111In-DOTA-MGS5] was 68%; that for {DOTA}-[dE]AYGW[NMeNle]D[2Nal]-NH2 (also: DOTA coordinating 111In) [^111In-DOTA-MGS5-2] was 45%.
As for {DOTA}-[dE]YPGW[NMeNle]D[1Nal]-NH2 (also: DOTA coordinating 177Lu) [^177Lu-DOTA-MGS10], the “cellular internalization after 2 h incubation on A431-CCK2R cells (% of total activity)” value (“cellular internalization … (% of total activity)” for short) is greater than 50%.
As for {DOTA}-[dE][dE][dE][dE][dE][dE]AYGWMDF-NH2 (also: DOTA coordinating 177Lu) [^177Lu-PP-F11], the “cell uptake … (% of total activity)” value was less than 30%.
Turning to {DOTA}-[dK]AYGW[NMeNle]D[1Nal]-NH2 (also: DOTA coordinating 111In) [^111In-DOTA-MGS9], the “cell uptake … (% of total activity)” value is 37%.
The same measure, in the same setting: as for {DOTA}-[dE]AYGW[NMeNle]D[1Nal]-NH2 (also: DOTA coordinating 68Ga) [^68Ga-DOTA-MGS5], the figure is 54%.
Turning to {DOTA}-[dE][dE][dE][dE][dE][dE]AYGWMDF-NH2 (also: DOTA coordinating 111In) [^111In-PP-F11], the “cellular internalization … (% of total activity)” value is less than 24%.
As for {HYNIC}-[dE]AYGW[NMeNle]D[1Nal]-NH2 (also: HYNIC coordinating 99mTc, co-ligand not given here) [^99mTc-HYNIC-MGS5], the “cell uptake … (% of total activity)” value worked out at 63%.
In the case of {DOTA}-[dE]AYPW[NMeNle]D[1Nal]-NH2 (also: DOTA coordinating 68Ga) [^68Ga-DOTA-MGS12], the “cellular internalization … (% of total activity)” value was roughly 40%.

For the next assay, the target named is human cholecystokinin-2 receptor (CCK2R) (human) (UniProt P32239). In words: displacement of [125I]Tyr12-gastrin-I on A431-CCK2R cells, filter plates, 1 h RT. (Displacement assays read how much labelled ligand stays bound in the presence of the test substance.)
One may read the IC50 as the concentration that inhibits the measured activity by half. Take “DOTA-MG11 ([1,4,7,10-tetraazacyclodocecan-1,4,7,10-tetraacetic acid^0, D-Glu^1, DesGlu^2-6] minigastrin) (peptide)”: the IC50 worked out at 0.9 nM.

The target of a further assay is T1, human cholecystokinin-2 receptor (CCK2R). The description is as above. The method, then:
Affinity for CCK2R was studied in A431 human epidermoid carcinoma cells stably transfected with the plasmid pCR3.1 containing the full coding sequence for the human CCK2R (A431-CCK2R) kindly provided by Dr. Luigi Aloj (Aloj L et al., J Nucl Med 2004, 45:485-494). […] Binding assays were carried out in 96-well filter plates (MultiScreenHTS-FB, Merck Group, Darmstadt, Germany) pretreated with 10 mM TRIS/139 mM NaCl PH 7.4 (2×250 μl). For the assay a number of 200,000-400,000 A431-CCK2R cells per well was prepared in 35mM HEPES buffer pH 7.4 containing 10 mM MgCl₂, 14 μM bacitracin and 0.5% BSA (a hypotonic solution disturbing the integrity of the cell membranes). […] Incubation was interrupted by filtration of the medium and rapid rinsing with ice-cold 10 mM TRIS/139 mM NaCl PH 7.4 (2×200 μl) and the filters were counted in the gamma-counter. Half maximal inhibitory concentration (IC50) values were calculated following nonlinear regression with Origin software (Microcal Origin 6.1, Northampton, MA) and a representative assay was chosen for comparison.
For the molecule B1, the IC50 came to 1.6 nM.
Regarding B2, the IC50 was 1.2 nM.
The molecule {DOTA}-[dE]AYGWMD[1Nal]-NH2 [DOTA-MGS1 (DOTA-DGlu-Ala-Tyr-Gly-Trp-Met-Asp-1Nal-NH2)] showed a 50% inhibitory concentration (IC50) of 1.9 nM.
The same measure, in the same setting: the value for B3 was 0.9 nM; that for {HYNIC}-[dE]AYGW[NMeNle]D[1Nal]-NH2 [HYNIC-MGS5 (HYNIC-DGlu-Ala-Tyr-Gly-Trp-(N-Me)Nle-Asp-1Nal-NH2)] was 6 nM; that for B4 was 1.6 nM.
On the same count and under the same terms, as for B5, the figure is 1.8 nM.
